# Reference: paper PMC12901202
# Columns and labels:
# Experiment in all cases: BLI; […]; 300 s association, 300 s dissociation; 10x kinetics buffer; […]; global fit, 1:1 model; […]
# [1] = biological target: SARS-CoV-2 BA.2.12.1 RBD, biotinylated (SARS-CoV-2) (UniProt P0DTC2)
# [2] = biological target: SARS-CoV-2 BA.2.75.2 RBD, biotinylated (SARS-CoV-2) (UniProt P0DTC2)
# [3] = biological target: SARS-CoV-2 BA.2.86 RBD, biotinylated (SARS-CoV-2) (UniProt P0DTC2)
# [4] = biological target: SARS-CoV-2 BA.5 RBD, biotinylated (SARS-CoV-2) (UniProt P0DTC2)
# [5] = biological target: SARS-CoV-2 BQ.1.1 RBD, biotinylated (SARS-CoV-2) (UniProt P0DTC2)
# [6] = biological target: SARS-CoV-2 Delta RBD, biotinylated (SARS-CoV-2) (UniProt P0DTC2)
# [7] = biological target: SARS-CoV-2 Wuhan-Hu-1 RBD, biotinylated (SARS-CoV-2) (UniProt P0DTC2)
# [8] = biological target: SARS-CoV-2 XBB.1.5 RBD, biotinylated (SARS-CoV-2) (UniProt P0DTC2)
substance,measurement,setting,value
TRI2-2 homotrimeric miniprotein inhibitor (designed binder),Kd,[1],0.851 nM
same,koff,[1],0.000117 s⁻¹
same,kon,[1],137000 M⁻¹ s⁻¹
same,Kd,[2],0.542 nM
same,koff,[2],8.93e-05 s⁻¹
same,kon,[2],165000 M⁻¹ s⁻¹
same,Kd,[3],0.388 nM
same,koff,[3],0.000131 s⁻¹
same,kon,[3],339000 M⁻¹ s⁻¹
same,Kd,[4],0.0306 nM
same,koff,[4],9.92e-06 s⁻¹
same,kon,[4],325000 M⁻¹ s⁻¹
same,Kd,[5],0.21 nM
same,koff,[5],3.36e-05 s⁻¹
same,kon,[5],160000 M⁻¹ s⁻¹
same,Kd,[6],0.00114 nM
same,koff,[6],2.95e-07 s⁻¹
same,kon,[6],259000 M⁻¹ s⁻¹
same,Kd,[7],0.00121 nM
same,koff,[7],3.46e-07 s⁻¹
same,kon,[7],286000 M⁻¹ s⁻¹
same,Kd,[8],0.658 nM
same,koff,[8],0.000105 s⁻¹
same,kon,[8],160000 M⁻¹ s⁻¹
